Test results: patent US9273304B2, “Inactivation method” (Thermo Fisher Scientific Baltics UAB, priority 2006, dated 2016)

Key:
Assay type in all cases: biochemical
Taq DNA polymerase [1] = biological target: T1, Taq DNA polymerase (Thermus aquaticus, UniProt P19821); assay: Activity in PCR measured by incorporation of [3H]-dTTP into the PCR product (pH and Mg2+ effect)
Method: Activity of Taq DNA polymerase modified with N-ethoxycarbonyl-N-2,3-dimethylmaleinimide at different pH during was measured by incorporation [^3H]-dTTP nucleotide into the PCR product.
Sets of PCR were carried out at the following pH values determined at 25° C.: 8.2, 8.3, 8.4, 8.5, 8.6, 8.7, and 8.8. The reactions were preformed in the GeneAmp® PCR System 9700 (Applied Biosystems) using 1.25 units of the modified enzymes in aliquots ([…] of the reaction buffer of the following composition: 20 mM Tris-HCl (pH values indicated above), 20 mM KCl, 5 mM (NH4)SO4, 1.5 mM MgCl2 supplemented with 0.2 mM dNTP, 0.8 MBq/ml [^3H]-dTTP, 0.5 […] of both PCR primers ([SEQ ID NO: 1] 5′-[…]-3′ and [SEQ ID NO: 2] 5′-[…]-3′), and human DNA (10 ng/50 μl).
Thermal cycling profile was the following: 95° C.—4 min; (95° C.—0.5 min, 50° C.—0.5 min, 72° C.—1 min)—30 cycles; 72° C.—7 min.
Activity of the modified DNA polymerase in PCR was determined as described in the Example 8. A set of PCR reactions was carried out in the reaction buffer (see Example 7) supplemented with the following Mg^2+ concentrations: 1 mM, 1.5 mM, 2 mM, 2.5 mM, 3 mM, 3.5 mM, 4 mM, 5 mM, 6 mM, 7 mM, and 8 mM.

Taq DNA polymerase [2] = biological target: T1, Taq DNA polymerase; assay: Reactivation of the modified Taq DNA polymerase by pre-incubation, activity measured at 50° C.
Method: The activity of modified Taq DNA polymerase was assayed as described in the Example 2. The enzyme was pre-incubated at different temperatures in the pre-heating buffer (see Example 2), its activity was measured at 50° C. in the reaction buffer of the following composition: 50 mM Tris (pH 8.4 at 25° C.), 10 mM KCl, 5 mM (NH4)2SO4 and 2 mM MgCl2. The activity of the modified DNA polymerase was normalized the activity of the unmodified one.

Taq DNA polymerase [3] = biological target: T1, Taq DNA polymerase; assay: Polymerase activity assay: incorporation of [3H]-dTTP into the polynucleotide adsorbed on DE-81 in 30 min at 70° C.; conditions: for Activity at 70° C. (%) After 10 min. preheating at 95° C. / Activity at 70° C. (%) Without preheating at 95° C.: aqueous solution
Method: The measure of the enzyme activity was incorporation of [^3H]-dTTP into polynucleotide fraction. One unit of polymerase activity is defined as the enzyme amount which incorporates 10 nmoles of deoxyribonucleotides into the polynucleotide adsorbed on DE-81 in 30 min at 70° C.
For activity assays, Taq DNA polymerase was diluted up to 4 u/ml with the dilution buffer of the following composition: 20 mM Tris-HCl (pH 8.8 at 25° C.), 1 mM EDTA, 1 mM DTT, and BSA (0.1 mg/ml). Reactions were carried out at 70° C. for 30 min with 5 μl of the diluted enzyme in 50 μl of the reaction buffer of the following composition: 67 mM Tris-HCl (pH 8.8 at 25° C.), 50 mM NaCl, 6.7 mM MgCl2, 1 mM DTT, and BSA (0.1 mg/ml). The reaction buffer was supplemented with 0.2 mM dNTP, [3H]-dTTP (0.4 MBq/ml) and 0.75 mM activated DNA from calf thymus.
Activity of the modified enzymes was measured either with the pre-incubation step, or without it, for 10 min at 95° C. in the pre-heating buffer of the following composition: 20 mM Tris-HCl (pH 8.25 at 25° C.), 100 mM KCl, 2 mM MgCl2, 0.5% Tween 20, 0.5% Nonidet P40, and 16% glycerol.
Aliquots (35 μl) of the enzyme solution were mixed with 2.25 μl aliquots of the N-ethoxycarbonyl-2,3-dimethylmaleinimide solutions described above resulting in the following molar ratios of Taq DNA polymerase to N-ethoxycarbonyl-2,3-dimethylmaleinimide: 1/1280 1/640, 1/320, 1/160, 1/110, 1/80, 1/40. The mixtures were incubated for 20 hours at 4° C. to modify the Taq DNA polymerase. Control samples, in which the enzyme was left unmodified (e.g., the ratio was 1/0), were obtained by mixing the Taq DNA polymerase with a 2.25 μl aliquot of DMF. These control samples were incubated under the same conditions as the modified ones.
The samples of the unmodified Taq DNA polymerase and the modified Taq DNA polymerases were diluted 250-fold in the pre-heating buffer (see Example 2) and activities of the modified enzyme were measured both before heat-reactivation and after it, as described in the Example 2. Activities of both inactivated and heat-reactivated DNA polymerases were determined as described in the Example 2, and the data were normalized to activity of the unmodified Taq DNA polymerase
Aliquots (20.6 μl) of the diluted enzyme solution were mixed with 1 μl of N-isobutoxycarbonyl-2,3-dimethylmaleinimide solutions described above resulting in different molar ratios of Taq DNA polymerase to N-isobutoxycarbonyl-2,3-dimethylmaleinimide (1/320, 1/160, 1/80 and 1/40). The mixtures were incubated 20 hours at 4° C. to modify the Taq DNA polymerase. Control samples, in which the enzyme was left unmodified (e.g., the ratio was 1/0), were obtained by mixing the Taq DNA polymerase with a 1 μl aliquot of DMF. These control samples were incubated under the same conditions as the modified ones. The heat-reactivation of the modified enzymes was performed as described in the Example 3.

[4] = molar ratio Taq DNA polymerase/N-etoxycarbonyl-2,3-dimethylmaleinimide 1/80
[5] = molar ratio Taq DNA polymerase/N-etoxycarbonyl-2,3-dimethylmaleinimide 1/110
[6] = molar ratio Taq DNA polymerase/N-etoxycarbonyl-2,3-dimethylmaleinimide 1/160
[7] = molar ratio Taq DNA polymerase/N-etoxycarbonyl-2,3-dimethylmaleinimide 1/320
[8] = molar ratio Taq DNA polymerase/N-etoxycarbonyl-2,3-dimethylmaleinimide 1/640
[9] = molar ratio Taq DNA polymerase/N-etoxycarbonyl-2,3-dimethylmaleinimide 1/1280

T1 sequence (P19821 whole entry): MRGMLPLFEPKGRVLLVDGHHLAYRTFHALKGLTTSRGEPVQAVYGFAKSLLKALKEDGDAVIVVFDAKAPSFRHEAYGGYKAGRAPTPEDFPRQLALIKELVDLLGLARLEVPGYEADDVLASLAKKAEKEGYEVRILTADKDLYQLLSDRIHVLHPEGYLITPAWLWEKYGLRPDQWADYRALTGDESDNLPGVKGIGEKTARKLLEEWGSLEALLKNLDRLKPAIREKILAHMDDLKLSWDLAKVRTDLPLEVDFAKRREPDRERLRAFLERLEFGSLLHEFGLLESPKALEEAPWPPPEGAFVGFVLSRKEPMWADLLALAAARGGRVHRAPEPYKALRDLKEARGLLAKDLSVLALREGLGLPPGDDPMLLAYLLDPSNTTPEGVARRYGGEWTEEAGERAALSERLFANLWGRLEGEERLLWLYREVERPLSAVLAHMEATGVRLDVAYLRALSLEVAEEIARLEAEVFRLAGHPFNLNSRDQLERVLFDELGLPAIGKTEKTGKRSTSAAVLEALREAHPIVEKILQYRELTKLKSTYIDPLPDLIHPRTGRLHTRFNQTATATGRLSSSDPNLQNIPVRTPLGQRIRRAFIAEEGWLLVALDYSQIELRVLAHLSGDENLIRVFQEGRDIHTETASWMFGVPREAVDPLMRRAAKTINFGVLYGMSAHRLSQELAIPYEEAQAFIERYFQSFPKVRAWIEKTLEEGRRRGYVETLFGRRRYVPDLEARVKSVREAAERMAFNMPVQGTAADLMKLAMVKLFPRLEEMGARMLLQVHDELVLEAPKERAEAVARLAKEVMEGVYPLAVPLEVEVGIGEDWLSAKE

Taq DNA polymerase modified with N-etoxycarbonyl-2,3-dimethylmaleinimide: Recombinant Taq DNA polymerase reversibly inactivated by reaction with N-ethoxycarbonyl-2,3-dimethylmaleinimide in aqueous solution (preferred molar ratio 1/110)
activity within the 1.5-5.0 mM range of Mg2+ concentrations (Taq DNA polymerase [1]; 1.5-5.0 mM Mg2+): ≥ 70% | Activity at 70° C. (%) (Taq DNA polymerase [1]; [Mg2+] 1 mM, incorporation of [3H]-dTTP into the PCR product): ~0% | Activity at 70° C. (%) (Taq DNA polymerase [1]; [Mg2+] 1.5 mM): ~70% | Activity at 70° C. (%) (Taq DNA polymerase [1]; [Mg2+] 2.0 mM): ~70% | Activity at 70° C. (%) (Taq DNA polymerase [1]; [Mg2+] 2.5 mM): ~100% | Activity at 70° C. (%) (Taq DNA polymerase [1]; [Mg2+] 3.0 mM): ~100% | Activity at 70° C. (%) (Taq DNA polymerase [1]; [Mg2+] 3.5 mM): ~100% | Activity at 70° C. (%) (Taq DNA polymerase [1]; [Mg2+] 4.0 mM): ~90% | Activity at 70° C. (%) (Taq DNA polymerase [1]; [Mg2+] 5.0 mM): ~70% | Activity at 70° C. (%) (Taq DNA polymerase [1]; [Mg2+] 6.0 mM): ~30% | Activity at 70° C. (%) (Taq DNA polymerase [1]; [Mg2+] 7.0 mM): ~20% | Activity at 70° C. (%) (Taq DNA polymerase [1]; [Mg2+] 8.0 mM): ~10% | Activity at 70° C. (%) (Taq DNA polymerase [1]; ambient pH 8.2, incorporation of [3H]-dTTP into the PCR product): ~30% | Activity at 70° C. (%) (Taq DNA polymerase [1]; ambient pH 8.3): ~80% | Activity at 70° C. (%) (Taq DNA polymerase [1]; ambient pH 8.4): ~100% | Activity at 70° C. (%) (Taq DNA polymerase [1]; ambient pH 8.5): ~100% | Activity at 70° C. (%) (Taq DNA polymerase [1]; ambient pH 8.6): ~100% | Activity at 70° C. (%) (Taq DNA polymerase [1]; ambient pH 8.7): ~100% | Activity at 70° C. (%) (Taq DNA polymerase [1]; ambient pH 8.8): ~60% | activity within the pH 8.3-8.7 range (Taq DNA polymerase [1]; pH 8.3-8.7): ≥ 80% | Activity at 50° C. (%) (Taq DNA polymerase [2]; incubation time at 95° C. 0 min): ~0% | Activity at 50° C. (%) (Taq DNA polymerase [2]; incubation time at 95° C. 0.5 min, listed as modified Taq DNA polymerase): ~60% | Activity at 50° C. (%) (Taq DNA polymerase [2]; incubation time at 95° C. 0.5 min, listed as modified enzyme): ~60% | Activity at 50° C. (%) (Taq DNA polymerase [2]; incubation time at 95° C. 1 min, listed as modified Taq DNA polymerase): ~90% | Activity at 50° C. (%) (Taq DNA polymerase [2]; incubation time at 95° C. 1 min, listed as modified enzyme): ~90% | Activity at 50° C. (%) (Taq DNA polymerase [2]; incubation time at 95° C. 1.5 min): ~90% | Activity at 50° C. (%) (Taq DNA polymerase [2]; incubation time at 95° C. 2.0 min): ~100% | Activity at 50° C. (%) (Taq DNA polymerase [2]; incubation time at 95° C. 3.0 min): ~100% | reactivation by preheating at 90° C. (Taq DNA polymerase [2]; preheated at 90° C. for several minutes, FIG. 8): regained full activity | restoration of the enzyme activity after incubation for 10 min at 94° C. (Taq DNA polymerase [3]; incubation 10 min at 94° C.): almost in the complete restoration of the enzyme activity | Activity at 70° C. (%) After 10 min. preheating at 95° C. (Taq DNA polymerase [3]; molar ratio Taq DNA polymerase/N-etoxycarbonyl-2,3-dimethylmaleinimide 1/40): ~100% | Activity at 70° C. (%) Without preheating at 95° C. (Taq DNA polymerase [3]; molar ratio Taq DNA polymerase/N-etoxycarbonyl-2,3-dimethylmaleinimide 1/40, normalized to unmodified enzyme): ~30% | Activity at 70° C. (%) After 10 min. preheating at 95° C. (Taq DNA polymerase [3]; [4]): ~90% | Activity at 70° C. (%) Without preheating at 95° C. (Taq DNA polymerase [3]; [4]): ~20% | Activity at 70° C. (%) After 10 min. preheating at 95° C. (Taq DNA polymerase [3]; [5]): ~100% | Activity at 70° C. (%) Without preheating at 95° C. (Taq DNA polymerase [3]; [5]): ~20% | Activity at 70° C. (%) After 10 min. preheating at 95° C. (Taq DNA polymerase [3]; [6]): ~90% | Activity at 70° C. (%) Without preheating at 95° C. (Taq DNA polymerase [3]; [6]): ~20% | Activity at 70° C. (%) After 10 min. preheating at 95° C. (Taq DNA polymerase [3]; [7]): ~90% | Activity at 70° C. (%) Without preheating at 95° C. (Taq DNA polymerase [3]; [7]): ~30% | Activity at 70° C. (%) After 10 min. preheating at 95° C. (Taq DNA polymerase [3]; [8]): ~50% | Activity at 70° C. (%) Without preheating at 95° C. (Taq DNA polymerase [3]; [8]): ~40% | Activity at 70° C. (%) After 10 min. preheating at 95° C. (Taq DNA polymerase [3]; [9]): ~80% | Activity at 70° C. (%) Without preheating at 95° C. (Taq DNA polymerase [3]; [9]): ~90% | specific activity retained at 70° C. temperature without preheating (Taq DNA polymerase [3]; several independent experiments, preferred modification (N-ethoxycarbonyl-2,3-dimethylmaleinimide, aqueous, 1/110)): 21±6%
